Measured values from paper PMC3540817, “Transfer of a Redox-Signal through the Cytosol by Redox-Dependent Microcompartmentation of Glycolytic Enzymes at Mitochondria and Actin Cytoskeleton” (Frontiers in Plant Science, 2012).

B1: recombinant cytosolic fructose 1,6-bisphosphate aldolase (FBA6, At2g36460) (enzyme, A. thaliana, UniProt Q9SJQ9 1-358, looked up)
chain: MSSFTSKFADELIANAAYIGTPGKGILAADESTGTIGKRLASINVENVESNRRALRELLFTTPGALPCLSGVILFEETLYQKSSDGTPFVDMLKSAGVLPGIKVDKGTVELAGTNGETTTQGLDGLGDRCKKYYEAGARFAKWRAVLKIGVNEPSQLAIHENAYGLARYAVICQENGLVPIVEPEILVDGSHDIQKCAAVTERVLAACYKALSDHHVLLEGTLLKPNMVTPGSESAKVAPEVIAEHTVRALQRTVPAAVPAIVFLSGGQSEEEATRNLNAMNQLKTKKPWSLSFSFGRALQQSTLKTWGGKEENVKKAQEAFLVRCKANSEATLGAYKGDAKLGEGAAESLHVKDYKY
notes: cytosolic fructose 1,6-bisphosphate aldolase FBA6, A. thaliana, At2g36460; Redox reagents were added to the mixtures; no modified residues are named; the redox state is told by the assay; source: recombinant, purified
B2: VDAC3 (At5g15090) reconstituted into liposomes (natural protein, A. thaliana, UniProt Q9SMX3 1-274, looked up)
chain: MVKGPGLYTEIGKKARDLLYRDYQGDQKFSVTTYSSTGVAITTTGTNKGSLFLGDVATQVKNNNFTADVKVSTDSSLLTTLTFDEPAPGLKVIVQAKLPDHKSGKAEVQYFHDYAGISTSVGFTATPIVNFSGVVGTNGLSLGTDVAYNTESGNFKHFNAGFNFTKDDLTASLILNDKGEKLNASYYQIVSPSTVVGAEISHNFTTKENAITVGTQHALDPLTTVKARVNNAGVANALIQHEWRPKSFFTVSGEVDSKAIDKSAKVGIALALKP
notes: voltage-dependent anion channel VDAC3, A. thaliana, At5g15090; also called VDAC3 in liposomes; porin; source: cell-free system (RTS 100 Wheat Germ CECF), separated from the reaction mix via reconstitution into liposomes

Columns and labels:
[1] = molecular target: the molecule itself; assay: far-Western, overlay or dot blot; 2 μg of each protein spotted on nitrocellulose, overlaid with 100 μg/ml aldolase with 0.1 mM GSNO, 5 mM GSSG, 1 mM diamide + 1 mM GSH or 0.5 mM H2O2 + 0.5 mM GSH, 1 h room temperature; glutaraldehyde cross-linking; anti-aldolase antibody
[2] = molecular target: T1, recombinant GAPDH GapC1 (At3g04120) (A. thaliana, UniProt P25858 1-338); assay: far-Western, overlay or dot blot; GapC and BSA spotted on nitrocellulose, overlaid with VDAC3 in liposomes, without DTT (oxidized GapC); anti-VDAC1 serum, ECL; details: both partners purified
T1 construct: cytosolic NAD-dependent glyceraldehyde-3-phosphate dehydrogenase GapC1, A. thaliana, At3g04120; Redox reagents (diamide + GSH, GSSG, GSNO, H2O2 + GSH, DTT) were added to the mixtures; the redox state is told by the assay; source: recombinant, purified
T1 sequence (P25858 whole entry): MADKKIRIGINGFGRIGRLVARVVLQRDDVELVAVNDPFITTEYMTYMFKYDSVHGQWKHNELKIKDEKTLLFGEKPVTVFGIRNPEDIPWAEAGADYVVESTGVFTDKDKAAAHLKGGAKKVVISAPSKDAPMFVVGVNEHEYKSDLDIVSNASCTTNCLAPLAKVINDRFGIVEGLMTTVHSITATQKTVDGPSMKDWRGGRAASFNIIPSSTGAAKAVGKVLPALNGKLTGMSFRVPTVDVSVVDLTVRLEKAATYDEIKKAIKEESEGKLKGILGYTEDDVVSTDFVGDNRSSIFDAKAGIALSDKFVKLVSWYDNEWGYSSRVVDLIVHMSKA

Binder | binding result [1] | binding result [2]
B1 | binds | –
B2 | – | binds
